Measured values as given in publication PMC12717009.

Key:
[1] = target: Nup116FG (amino acids 1–725), hydrogel particles (S. cerevisiae) (UniProt Q02630); assay: FG-hydrogel permeation assay (confocal fluorescence); preformed NupFG hydrogel particles (3.3 µM total NupFG, 5% FMAL-labelled, TBS); Kap95–AF568 in 150 mM NaCl, 100 mM Tris pH 8 added
[2] = target: isolated native yeast (wild type) nuclear pore complex (S. cerevisiae (endogenous)) (UniProt Q02455); assay: affinity purification with mass spectrometry; whole NPCs captured through Mlp1-ppx-PrA from cryogenically lysed yeast (20 mM HEPES–KOH pH 7.4, 50 mM potassium acetate, 20 mM NaCl, 2 mM MgCl2, Triton X-100, Tween-20), native elution by protease cleavage; label-free quantitation; +CP (after isolation) compared with −CP (72 h in buffer) NPCs
[3] = target: NPCs isolated from an Mlp1ppxPrA pNup84–mCherry strain expressing Kap95–GFP (S. cerevisiae (endogenous) | S. cerevisiae) (UniProt Q02455); assay: immunofluorescence of isolated NPCs on coverglass (confocal); isolated NPCs kept in PBS at 4 °C for 0, 24, 48 and 72 h, put on poly-L-lysine coverglass; anti-eGFP–AF647 signal at spots co-localized with anti-mCherry–AF568; single-exponential fit of the loss

Substance: Kap95 labelled with Alexa Fluor 568 C5 maleimide (from UniProt Q06142 1-861) (natural protein)
- concentration of Kap95–AF568 in Nup116FG particles [1]: 1.58 µM

Substance: endogenous Kap95 (from UniProt Q06142 1-861) (natural protein)
- stoichiometry N (Kap95 molecules per NPC) [2]: 15 to 20

Substance: Kap95–GFP expressed under its native promoter (from UniProt Q06142 1-861) (natural protein)
- half-life of dissociation (t1/2) [3]: 20.1 h
